Biological target: FLAG-tagged vasodilator-stimulated phosphoprotein (FLAG-VASP), wildtype (human) (UniProt P50552)
Assay: proximity ligation; 293T cells co-expressing p8-HA and FLAG-VASP or FLAG-N-WASP, fixed with 2% PFA; mouse anti-FLAG and rabbit anti-HA, Duolink In Situ Red kit; dots per positive cell counted

Sequence of UniProt P50552 (P50552 whole entry): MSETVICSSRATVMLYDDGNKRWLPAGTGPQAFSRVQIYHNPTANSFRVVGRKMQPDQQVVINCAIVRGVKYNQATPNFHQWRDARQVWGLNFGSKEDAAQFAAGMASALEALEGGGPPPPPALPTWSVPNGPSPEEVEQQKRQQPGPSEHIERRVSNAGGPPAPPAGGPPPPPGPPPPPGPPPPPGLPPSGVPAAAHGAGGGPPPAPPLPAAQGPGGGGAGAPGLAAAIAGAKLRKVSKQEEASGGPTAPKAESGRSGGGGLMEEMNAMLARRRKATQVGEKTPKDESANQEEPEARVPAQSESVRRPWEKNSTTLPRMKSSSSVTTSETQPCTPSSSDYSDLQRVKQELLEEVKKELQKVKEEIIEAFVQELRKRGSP

## HTLV-1 p8 protein, HA-tagged (p8-HA) (natural protein)
  PLA spots per cell (spots per cell): 7

— PMC7526893
